This passage reports background-corrected fluorescence results from the supplement of paper PMC9428881.

± gives the standard error.

The data set can be described thus: background-corrected fluorescence of 3'-dye-labeled ssDNA relative to brightest sequence (3'-GCGCG) (fraction); higher = brighter dye fluorescence (less quenching). The procedure, abridged: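 By light-directed phosphoramidite synthesis, single-stranded DNA ending in a 3' Cy3 or Cy5 dye beside each of 1024 permuted pentamers was built on glass slides. Scanning at 532 or 635 nm took place before and after overnight ethylenediamine/ethanol deprotection. Data are means of 10 features per array over at least 3 syntheses. Fluorescence is corrected for unlabeled-oligo background and scaled to the brightest sequence.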

Regarding “TTTTTTGATGCTGATGCGCATTTTTTTTTTTTTTTCACAT [TACAC]”, the background-corrected fluorescence turned out to be 0.521 ± 0.02 (dye: Cy3 (3' terminal)) and 0.368 ± 0.016 (dye: Cy5 (3' terminal)).
Consider “TTTTTTGCTGCTGCTGCTGCTTTTTTTTTTTTTTTAAAAA”, for which the background-corrected fluorescence by setting is: (dye: Cy3 (3' terminal)) 0.593 ± 0.0096; (dye: Cy5 (3' terminal)) 0.476 ± 0.026.
For “TTTTTGCATGCTCAGCATCATTTTTTTTTTTTTTTTAGTG [GTGAT]” the same measures were 0.541 ± 0.027 and 0.455 ± 0.053.
The matching figures for “TTTTTTCATGATGCTGCTGCTTTTTTTTTTTTTTTGCAAA [AAACG]”: 0.599 ± 0.028 and 0.497 ± 0.03.
On to “TTTTTTGCTCATGAGCATCATTTTTTTTTTTTTTTAGCTG [GTCGA]”, for which the background-corrected fluorescence is, setting by setting: (dye: Cy3 (3' terminal)) 0.524 ± 0.005; (dye: Cy5 (3' terminal)) 0.424 ± 0.058.
For “TTTTTGCAGCATGCTGCTGCTTTTTTTTTTTTTTTTTAAA [AAATT]” the same measures were 0.63 ± 0.021 and 0.487 ± 0.042.
Turning to “TTTTTTGATGATGCGCATGATTTTTTTTTTTTTTTCCATC [CTACC]”, the background-corrected fluorescence (dye: Cy3 (3' terminal)) worked out at 0.387 ± 0.081 and the background-corrected fluorescence (dye: Cy5 (3' terminal)) amounted to 0.281 ± 0.02.
As to “TTTTTGCAGCATGCTGATGATTTTTTTTTTTTTTTTTACC [CCATT]”, the background-corrected fluorescence is, setting by setting: (dye: Cy3 (3' terminal)) 0.388 ± 0.019; (dye: Cy5 (3' terminal)) 0.286 ± 0.017.
The matching figures for “TTTTTTGCTGCGCATCATCATTTTTTTTTTTTTTTAATGG [GGTAA]”: 0.645 ± 0.023 and 0.51 ± 0.048.
“TTTTTGCATCATGAGCAGCATTTTTTTTTTTTTTTTGCTT [TTCGT]”: the background-corrected fluorescence by setting is: (dye: Cy3 (3' terminal)) 0.514 ± 0.029; (dye: Cy5 (3' terminal)) 0.384 ± 0.038.
In the case of “TTTTTTGCTGCGCAGCATGCTTTTTTTTTTTTTTTAATTA [ATTAA]”, the background-corrected fluorescence stood at 0.564 ± 0.022 (dye: Cy3 (3' terminal)) and 0.43 ± 0.027 (dye: Cy5 (3' terminal)).
For “TTTTTTGCGCATCAGCATCATTTTTTTTTTTTTTTATGTG [GTGTA]” the same measures were 0.607 ± 0.043 and 0.452 ± 0.034.
For “TTTTTTGAGCAGCATGCTGCTTTTTTTTTTTTTTTCTTAA [AATTC]” the same measures were 0.562 ± 0.019 and 0.427 ± 0.039.
The matching figures for “TTTTTTCATGCTGAGCATGCTTTTTTTTTTTTTTTGACTA [ATCAG]”: 0.491 ± 0.021 and 0.416 ± 0.029.
In the case of “TTTTTTCATCATCATGAGCATTTTTTTTTTTTTTTGGGCT [TCGGG]”, the background-corrected fluorescence reads like this: (dye: Cy3 (3' terminal)) 0.527 ± 0.017; (dye: Cy5 (3' terminal)) 0.442 ± 0.024.
The matching figures for “TTTTTTGCGCATGCTCATGCTTTTTTTTTTTTTTTATAGA [AGATA]”: 0.602 ± 0.037 and 0.489 ± 0.045.
“TTTTTGCATGATCATGAGCATTTTTTTTTTTTTTTTCGCT” came in with a background-corrected fluorescence (dye: Cy3 (3' terminal)) of 0.486 ± 0.0071 and a background-corrected fluorescence (dye: Cy5 (3' terminal)) of 0.392 ± 0.085.
Turning to “TTTTTTCAGCATGCGCAGCATTTTTTTTTTTTTTTGTATT [TTATG]”, the background-corrected fluorescence was found to be 0.5 ± 0.07 (dye: Cy3 (3' terminal)) and 0.375 ± 0.03 (dye: Cy5 (3' terminal)).
As for “TTTTTTGCGCATGCGCATCATTTTTTTTTTTTTTTATATG [GTATA]”, the background-corrected fluorescence runs as follows: (dye: Cy3 (3' terminal)) 0.531 ± 0.013; (dye: Cy5 (3' terminal)) 0.407 ± 0.024.
The sequence “TTTTTGCATGATCATCATCATTTTTTTTTTTTTTTTCGGG [GGGCT]” yielded a background-corrected fluorescence (dye: Cy3 (3' terminal)) of 0.664 ± 0.02 and a background-corrected fluorescence (dye: Cy5 (3' terminal)) of 0.558 ± 0.044.
For “TTTTTTGAGCATGCTCATGCTTTTTTTTTTTTTTTCTAGA [AGATC]” the same measures were 0.608 ± 0.035 and 0.529 ± 0.026.
Consider “TTTTTTCATCATGAGCATCATTTTTTTTTTTTTTTGGCTG [GTCGG]”, for which the background-corrected fluorescence runs as follows: (dye: Cy3 (3' terminal)) 0.469 ± 0.016; (dye: Cy5 (3' terminal)) 0.364 ± 0.018.
“TTTTTTGATCAGCATCATGATTTTTTTTTTTTTTTCGTGC” gave a background-corrected fluorescence (dye: Cy3 (3' terminal)) of 0.504 ± 0.033 and a background-corrected fluorescence (dye: Cy5 (3' terminal)) of 0.397 ± 0.027.
For “TTTTTTGCTCAGCATGATCATTTTTTTTTTTTTTTAGTCG [GCTGA]” the same measures were 0.579 ± 0.024 and 0.444 ± 0.036.
